Measured values: patent publication US20080274112A1, “Nogo Receptor Antagonists” (priority 2003, published 2008)

Key:
DRG neurons = experiment: Neurite outgrowth assay, myelin mixed with test protein (Example 10); type: cell-based; conditions: P3-4 rat DRG; spotted mixed with CNS myelin
Protocol: Lab-Tek® culture slides (4 wells) were coated with 0.1 mg/ml poly-D-lysine (Sigma®). CNS myelin alone or mixed with sNogoR310, sNogoR310-Fc fusion protein, mAb 5B10 or control PBS were separately spotted as 3 μl drops. Fluorescent microspheres (Polysciences) were added to the myelin/PBS to allow later identification of the drops (Grandpre et al, Nature 403, 2000). Lab-Tek® slides were then rinsed and coated with 10 μg/ml laminin (Gibco™).
Dorsal root ganglions (DRG's) from P3-4 Sprague Dawley rat pups were dissociated with 1 mg/ml collagenase type 1 (Worthington), triturated with fire-polished Pasteur pipettes pre-plated to enrich in neuronal cells and finally plated at 23,000 cells/well on the pre-coated Labtek culture slides. The culture medium was F12 containing 5% heat inactivated donor horse serum, 5% heat inactivated fetal bovine serum and 50 ng/ml MNGF and incubated at 37° C. and 5% CO2 for 6 hours.
Slides were fixed for 20 minutes with 4% paraformaldehyde containing 20% sucrose and stained for the neuronal marker anti beta-III-tubulin (Covance TUJ1) diluted 1:500. As secondary antibody anti-mouse Alexa Fluor® 594 (Molecular Probes) was diluted 1:300 and slides were coverslipped with Gel/Mount™ (Biømeda™). 5× digital images were acquired with OpenLab™ software and analyzed by using the MetaMorph® software for quantification of neurite outgrowth.

Nogo-66, MAG and myelin = experiment: Blocking of Nogo-66, MAG and myelin action in vitro
[1] = tested on: rat spinal cord dorsal hemisection; experiment: Intrathecal sNogoR310-Fc in rats with mid-thoracic dorsal hemisection; type: in vivo
From the text: (§1) The Basso-Beattie-Bresnahan (BBB) locomotor rating scale (Basso et al., 1996, Neurotrauma 13, 343-359), the inclined plane test and the inclined grid walking test (Li and Strittmatter, 2003, J Neurosci. 2003, 23, 4219-27) were monitored in rats and mice after injury. For the inclined plane test, we measured the maximal angle to which a 50 cm×60 cm board could be angled for 5 sec without the mouse sliding off. For inclined grid walking, the mice were trained to climb a wire grid (35 cm long with 2.54 cm squares) at a slope of 45 degrees. The number of instances in which the hindpaw dropped below the grid plane was scored for each excursion from bottom to top. For the rat behavioral testing, BBB locomotor scale, grid walking and footprint analysis were performed. For grid walking, the rats were trained to walk on a wire grid (70 cm long with 2.54 cm squares), and the number of instances in which the hindpaw dropped below the grid plane was counted. For footprint analysis, the walking patterns of rat hindpaws were recorded with ink during a continuous locomotion across a 90 cm runway, and stride length on each side and stride width were calculated (Metz et al., 2000, Brain Res., 883, 165-177). All of these behavioral tests were performed by at least two individuals. Throughout the surgery, behavioral testing and histologic analysis, researchers were blind to the identity of the compound in the minipump.
We isolated spinal cord 4 mm rostral to and 4 mm caudal to the lesion site (8 mm long in total) from transgenic mice and embedded it in a glutaraldehyde-polymerized albumin matrix, and cut parasagittally on a vibratome (30 μm thick). We collected transverse sections (50 μm) from the spinal cord 5-7 mm rostral to and 5-7 mm caudal, to the injury site. For sNogoR310-Fc injection experiments in rats, the spinal cord extending from 10 mm rostral to 10 mm caudal from the lesion site was cut parasaggitally (50 μm) on a vibrating microtome. Transverse sections were collected from the spinal cord 11-16 mm rostral to and 11-16 mm caudal to the injury site. We incubated the sections with avidin-biotin-peroxidase complex and visualized the BDA tracer by nickel-enhanced diaminobenzidine HRP reaction (Grandpre, 2002, Nature, 417, 547-551). We processed some sections for serotonin immunohistochemistry (anti-5-HT antibody) by indirect immunofluoresence. To visualize the lesion area, we double-stained some sections with antibodies directed against GFAP (Sigma®, St. Louis, Mo.). We mounted, dehydrated and covered the sections with mounting medium.
We fused the ligand binding domain (27-310) of rat Nogo receptor-1 to the rat IgG1 Fc domain to promote stability and purification. We purified protein from stably transfected CHO cells. […]

[2] = tested on: mouse spinal cord dorsal over-hemisection; experiment: Dorsal over-hemisection in gfap::sNogoR310 transgenic mice; type: in vivo
From the text: as §1
We cloned the mouse sNogoR310 cDNA (corresponding to amino acids 1-310 of the Nogo receptor-1) into the NotI site of the C-3123 vector. In this vector, sNogoR310 expression is under the control of the glial fibrillary acidic protein (gfap) gene regulatory elements, which allow high level expression with enhanced secretion from reactive astrocytes at site of injury. We digested the resulting vector sequentially with AatII and SfiI and isolated the gfap::sNogoR310 construct on a 3.4 kb fragment. We microinjected this fragment into embryos to generate transgenic mice. We verified by PCR that the transgene had integrated and identified five founder lines. We crossed heterozygous males of the two founder lines with the highest expression levels to female C57BL/6J mice. We confirmed that the GFAP-positive cells express and secrete sNogoR310 in heterozygous transgenic mice by Western blot analysis using antibody raised against Nogo receptor-1.
We deeply anesthetized adult female heterozygous transgenic or littermate WT mice (10-16 weeks of age) and performed a complete laminectomy, fully exposing the dorsal part of spinal cord at T6 and T7 levels. We performed a dorsal over-hemisection at T6 with a 30-gauge needle and a pair of microscissors to completely sever the dorsal and dorsolateral corticospinal tracts (CSTs). We passed a marked needle across the dorsal part of the spinal cord several times to assure that the lesion was at a depth of 1.0 mm. We sutured the muscle layers over the laminectomies and closed the skin on the back with surgical staples. To trace the corticospinal tracts, we made a burr hole overlying cerebral cortex on the right side into the skull 14 days after spinal cord injury. We applied the tracer BDA (MW 10,000, 10% in PBS) (Molecular Probes, Eugene, Oreg.) to 4 injection sites at a depth of 0.7 mm from the cortical surface. Four weeks after injury, the mice were perfused transcardially with PBS, followed by 4% paraformaldehyde.
We investigated the integrity of descending corticospinal tracts (CST) by injecting anterograde tracer biotin dextran amine (BDA) into the right motor cortex as described in Li and Strittmatter, 2003, J. Neurosci., 23, 4219-27. In littermate WT mice, the prominent dorsal CST (dCST) is tightly bundled rostral to the lesion, and a few dorsolateral CST fibers are visible ipsilaterally. A small number of BDA-labeled short collateral sprouts project into gray matter, particularly in the ventral cord, but the sprouting is largely confined to the side of the cord contralateral to the tracer injection. […]

Nogo receptor-1 = experiment: Blocking of ligand binding to Nogo receptor-1 by soluble receptors
chick neurons = experiment: Neurite outgrowth assay using chick neurons; type: cell-based

Molecule	protection from myelin-mediated inhibition of neurite outgrowth (DRG neurons)	blocking of Nogo-66, MAG and myelin action (Nogo-66, MAG and myelin)	animals with consistent forelimb-hindlimb coordination and parallel paw position ([1]; 4 weeks after injury)	total collateral length of each sprout versus NEP 1-40-treated animals ([1]; distal spinal cord)	serotonin fibers versus control group ([1]; sections 11-15 mm below the lesion)	rubrospinal tract fibers distal to SCI ([1]; transverse sections 11-15 mm distal)	grid climbing ([2]; 2-6 weeks post-injury)	BDA-labeled regenerating fibers in the rostral-caudal axis ([2]; any level 1-4 mm caudal to the lesion, each transgenic mouse)	sustainable inclined plane angle ([2]; days 7-28 after injury vs control)	BBB scores ([2]; lines Tg08 and Tg01 vs control, 7-28 days)	fibers on the opposite side of the spinal cord (ipsilateral to tracer injection) ([2]; rostral to dorsal hemisection)	sprouting density of collateral sprouts (micro densitometric measurement) ([2]; rostral to lesion, transgenic vs WT)	CST sprouting ([2]; secreted in transgenic mice)	serotonin fibers in ventral horn of caudal spinal cord ([2]; transgenic vs WT)	blocking of binding of NogoA, NogoB, NogoC, MAG and OM-gp to Nogo receptor-1 (Nogo receptor-1)	protection in similar assay using chick neurons (chick neurons)
sNogoR310-Fc: fusion protein comprising amino acids 26-310 of rat Nogo receptor-1 and a rat Fc fragment (protein, left off: a dimerising Fc or GST, fusion protein comprising amino acids 26-310 of rat Nogo receptor-1 and a rat Fc fragment) PCPGACVCYNEPKVTTSRPQQGLQAVPAGIPASSQRIFLHGNRISYVPAASFQSCRNLTILWLHSNALAGIDAAAFTGLTLLEQLDLSDNAQLRVVDPTTFRGLGHLHTLHLDRCGLQELGPGLFRGLAALQYLYLQDNNLQALPDNTFRDLGNLTHLFLHGNRIPSVPEHAFRGLHSLDRLLLHQNHVARVHPHAFRDLGRLMTLYLFANNLSMLPAEVLVPLRSLQYLRLNDNPWVCDCRARPLWAWLQKFRGSSSGVPSNLPQRLAGRDLKRLATSDLEGCA	protected	blocks	all 9	twice as great	twice as numerous	many BDA-labeled RST fibers	–	–	–	–	–	–	–	–	–	–
sNogoR310: soluble Nogo receptor-1 polypeptide, residues 26-310 (human) or 27-310 (rat); mouse form expressed in transgenic mice (protein) CPGACVCYNEPKVTTSRPQQGLQAVPAGIPASSQRIFLHGNRISYVPAASFQSCRNLTILWLHSNALAGIDAAAFTGLTLLEQLDLSDNAQLRVVDPTTFRGLGHLHTLHLDRCGLQELGPGLFRGLAALQYLYLQDNNLQALPDNTFRDLGNLTHLFLHGNRIPSVPEHAFRGLHSLDRLLLHQNHVARVHPHAFRDLGRLMTLYLFANNLSMLPAEVLVPLRSLQYLRLNDNPWVCDCRARPLWAWLQKFRGSSSGVPSNLPQRLAGRDLKRLATSDLEGCA	protected	–	–	–	–	–	progressive improvement	5-15	significantly greater	significantly higher	4-12 sprouts per transverse section	approximately a tenfold increase	induces CST sprouting	much greater number	block the binding	protective
